The text below walks through data of publication PMC4156298, “Characterization of the PH1704 Protease from Pyrococcus horikoshii OT3 and the Critical Functions of Tyr120” (PLoS ONE, 2014).

One may read the stoichiometry N as a count of units in the complex or per binding partner. One may read the Km as the concentration of substrate that gives half-maximal velocity. Broadly, the kcat is the maximal rate divided by the concentration of active sites. In general, kcat/Km refers to the turnover number divided by the Michaelis constant.

Where a chain is given by its changes, count along the chain named. Numbers in names are those of the source.

B1: recombinant PH1704 protease from Pyrococcus horikoshii OT3 (enzyme, UniProt O59413 1-166, looked up)
chain: MKVLFLTANEFEDVELIYPYHRLKEEGHEVYIASFERGTITGKHGYSVKVDLTFDKVNPEEFDALVLPGGRAPERVRLNEKAVSIARKMFSEGKPVASICHGPQILISAGVLRGRKGTSYPGIKDDMINAGVEWVDAEVVVDGNWVSSRVPADLYAWMREFVKLLK
notes: PH1704 protease, Pyrococcus horikoshii OT3, gene amplified from genomic DNA with primers at the start and at the stop codon, cloned NdeI/BamHI into pET-15b; The tag is known from detection with an anti-His tag antibody; also called WT; source: E. coli BL21 (DE3), purified (heat incubation at 80°C, Sephacryl S-200); copies: 12
B2: PH1704 protease (Pyrococcus horikoshii OT3; Y120P) (protein)
chain: B1 chain with Y120P
notes: full-length gene in pET-15b (NdeI/BamHI), His-tag (detected by anti-His western blot), E. coli BL21(DE3); heat step and Sephacryl S-200
B3: PH1704 protease (Pyrococcus horikoshii OT3; Y120S) (protein)
chain: B1 chain with Y120S
notes: as for B2
B4: PH1704 protease (Pyrococcus horikoshii OT3; Y120W) (protein)
chain: B1 chain with Y120W
notes: as for B2

The first data set deals with the molecule itself. Description: native gel or EMSA; non-denaturing PAGE (10% resolving gel, 5% stacking gel), Coomassie stain and anti-His western blot; size read against a high molecular weight protein marker.
Conditions: not given
On the technique in general: Mobility shift assays separate free from complexed probe on a gel.
On to B1, for which the “stoichiometry N” value amounted to 12.

Substrate in a further data set: Cc1cc(=O)oc2cc(NC(=O)[C@@H](N)CCCNC(=N)N)ccc12
Description: fluorescence of released amc, Hill equation fit. It counts as biochemical, Pyrococcus horikoshii. The conditions noted are these: 50 mM sodium phosphate pH 7.5, 358 K, 60 min, aminopeptidase, 85.0 °C. From the text: fluorescence of released amc, Hill equation fit on PH1704 protease
As to B1, the Km was determined as 12 ± 0.65 µM, the kcat came to 0.0108 ± 0.000833 s⁻¹ and the kcat/Km was 867 ± 133 M⁻¹ s⁻¹.

On to B2, for which the Km stood at 11.3 ± 0.59 µM, the kcat is 0.0728 ± 0.002 s⁻¹ and the kcat/Km is 6630 ± 417 M⁻¹ s⁻¹.

As for B3, the Km was found to be 9.0 ± 0.43 µM, the turnover number (kcat) was determined as 0.00245 ± 0.000167 s⁻¹ and the kcat/Km came out at 400 ± 66.7 M⁻¹ s⁻¹.

B4: the Km is 20.6 ± 0.77 µM, the kcat is 0.02 ± 0.00117 s⁻¹ and the kcat/Km came out at 1100 ± 83.3 M⁻¹ s⁻¹.
